Experiment: label from the status in PepcDB records
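Also: failed if final PepcDB status was selected cloned or expressed and not failed if soluble or beyond.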

Row | Sequence | protein production
1 | MQNAESWFKKYWHLSVLVIAALISVKLRILNPWNSVFTWTVRLGGNDPWYYYRLIENTIHNFPHRIWFDPFTYYPYGSYTHFGPFLVYLGSIAGIIFSATSGESLRAVLAFIPAIGGVLAILPVYLLTREVFDKRAAVIAAFLIAIVPGQFLQRSILGFNDHHIWEAFWQVSALGTFLLAYNRWKGHDLSHNLTARQMAYPVIAGITIGLYVLSWGAGFIIAPIILAFMFFAFVLAGFVNADRKNLSLVAVVTFAVSALIYLPFAFNYPGFSTIFYSPFQLLVLLGSAVIAAAFYQIEKWNDVGFFERVGLGRKGMPLAVIVLTALIMGLFFVISPDFARNLLSVVRVVQPKGGALTIAEVYPFFFTHNGEFTLTNAVLHFGALFFFGMAGILYSAYRFLKRRSFPEMALLIWAIAMFIALWGQNRFAYYFAAVSAVYSALALSVVFDKLHLYRALENAIGARNKLSYFRVAFALLIALAAIYPTYILADAQSSYAGGPNKQWYDALTWMRENTPDGEKYDEYYLQLYPTPQSNKEPFSYPFETYGVISWWDYGHWIEAVAHRMPIANPFQAGIGNKYNNVPGASSFFTAENESYAEFVAEKLNVKYVVSDIEMETGKYYAMAVWAEGDLPLAEKYYGGYFYYSPTGTFGYANSQWDIPLNSIIIPLRIPSELYYSTMEAKLHLFDGSGLSHYRMIYESDYPAEWKSYSSQVNLNNESQVLQTALYEAVMRARYGVSPTMGTQEVLYKYAYTQLYEKKMGIPVKIAPSGYVKIFERVKGAVVTGKVSANVTEVSVNATIKTNQNRTFEYWQTVEVKNGTYTVVLPYSHNSDYPVKPITPYHIKAGNVVKEITIYESQVQNGEIIQLDL | failed
2 | MQNIILTTKKIFRLAFILILIAATFMSCKTAPAKEETLIDLIKAGKSEELQERLNSSAINMKDEEGNSLLHIAAVKNDPIIVRLLINMDADIEAKNNTGATPLAAALNNSAYDAVKVLVEYNANIFAKDNEGEKPFDTACKNNVPNLILTAQTIKQKDENQDTVLHLAVKAMDKQLTKQILAIAPPETVYNKENLSPLAIAYKHNNAEDSAEIASILLLAGIQPMGKDFAEFETASLARNYSMRFADGETLLHIFARKGYTGFLKFLIKNKVPIDVKDISSSTAMQEAVYNGNTEAAILLLQAGADPNSRNSSGNTALHLVMPEASRSKLFNELITAGANPNLKDNYGETPLHVAARIGMNDDILDQLLKAGADINERNKKGQTPLILAIDRNQTQQVDFLINHGADIHAEDKSGESAFIHSLSMGLPMVEHVVTEKNSTERDSNGSTPLHLAVSHRASSDIIYYLVEKKSLINTRNKLGNTPLHIAAEKNYREAGEILIANNADIFYANLNGDSPLKFALTLREGREDWMINSHTIGAGDGAGNTPLHLAAEWQILPMIPYLIDKGADINARNTNNETPLFNAVRTDSPEAIKALLGEGVSKKADLDARDFLGNTILHAAVRWSAYKAADFILSKDTEEYVRLINAKNLAGKTVLHEAAKQGEIKFINIFLKAKVDVNAADETGRSPLSEAVLANQTQAIDLLLKNGASPVQQDMYGRTALHEAVEISEESIILVRNAGGNPLTKDAYGKTPFSLALNKNIRTVDLVLGNDSLLADTDGDTPLHIAVKERVSLDYFQRIMKKKYPVNKRNKNGETALLLAIQNSQKEITRALLAGGADPFIVNNKGVSAITEIFMHHPDFTPIAAEFSLKQTDTLGEGMLHYAAKFADVQTLKDILALPGIKLDVKNTAGETPYQVALRWNRSEIAELLKTE | failed
3 | MQNIVIRQCGHEDESWMNTLYKQNSKQALYQLGKSLDEGFVQDNAHFDQVMKQWIEIGAVYAAEIEGDPVGFLVIQRERAQHGPEIIQYISSHENILILQERALSDLHYAGYGPVLVSPHARGKGVAKALHDHALHILKAEKFDAMVAFVDAENPTSLKIHVDALDMQIIDKVVLASGQFFIIGQVIG | failed
4 | MQNNSYGYAVSVRVGGKEHRHWERYDIDSDFLIPADSFDFVIGRLGPEAAIPDLSGESCEVVIDGQIVMTGIIGSQRHGKSKGSRELSLSGRDLAGFLVDCSAPQLNVKGMTVLDAAKKLAAPWPQIKAVVLKAENNPALGKIDIEPGETVWQALTHIANSVGLHPWLEPDGTLVVGGADYSSPPVATLCWSRTDSRCNIERMDIEWDTDNRFSEVTFLAQSHGRSGDSAKHDLKWVYKDPTMTLHRPKTVVVSDADNLAALQKQAKKQLADWRLEGFTLTITVGGHKTRDGVLWQPGLRVHVIDDEHGIDAVFFLMGRRFMLSRMDGTQTELRLKEDGIWTPDAYPKKAEAARKRKGKRKGVSHKGKKGGKKQAETAVFE | not failed
5 | MQPCPSEAPRVLHALTRRGMALALAATLSLVLSACGGGGDDTAAATTAPPSSNAVTPSPSPAPAPTYSVGGTVAGLGSGLSVKLLNNGGDAVTVTANGNFQFPTALASGAQYAATVGTRPSGQQCTIANDSGTMGSANVTNIAVTCSTRPLFAYTANSNDNTVSAYTLDPTTGAPTLIGTPISVGQGPLSLIADKAGKFVYVVDGNDNSVTTLAIDSETGLLTISGTPATTGMQPFNIARTPASTFAYTTNFGDNTLSGFSINATTGVLTSIGTIAAGTNPYTIVINKAGTFAYVVNAASGAGTPSAMVFSINGATGALTAVGSPVATGNAPFYIALHPAGTFAYVANSQDNTVQVYAINQTTGALTAVGSPVATGQGPIPIAIHPSGLFAYVGNVFDNTVSLYAINTGTGALTLKSTLATGNDPLAITLNDAGSIAYIVNGVDHDVVAYAVDSSTGALTSVATAQTGLLPRAFAIVAVP | failed
6 | MQPEITSYRHPATGTVSYLVVDPATFLCAIVDPVLDFDPVTEEIDTRFVDAIIADIRAKDLGPTWILETGLHTGHLSAAGHLKYETGASVCIGAGVVESLKRLAPQFGETMVDLDGWDFDKLAQDGDTFPMGGLEITPIALTGRLPGAVAYRMADMVFTGDLVLAPAEGSGRCDIPGADAGKAWDDARKILALPPETRIMPGVSATAACESTVADAKASNIQLNDTIDQLDFIALRTAADAFLPDPELAAAALRVAIRAGRPPSPPESGPRFPAVDLSKL | failed
7 | MQPLLRTAGFSLLLLAASCGVGAQPEPQNSRLTAIKMDGELPARAAIAGLFAELDFQQATQSYLWALPLVSYAQWQGEFRDKLHAGNGDLMVLESYEDKLGVITANATTPYILGFVDLNQTGPMVVELPPGPTAGGVGDFWQRAITDMGQTGPDQGKGGKYLVLPPGHPEPSDADQYYLAKSQTMNVLVGFRVLDPDPAKGKALVQQFKMYPYAQRATPPATRLLSPGGKPWSGTQPRGMAYWERLHQIIQQEPVNERDRFYMAMLASLGIEKDKPFNPNEHQRQALEQGARMGELIAQANTFAKRFADAQYWPDRQWDKVLNIADPSQRVAYYDQLWERSAWFYEAVTNTKGMVSKTPGLGQTYLGAYTDHNGQWLDGGKHYRLHLGSNPPARQFWSLTVYDSASRCLIDNPQRKADLSSRQDLKKNPDGSLDLYFGPSAPKGLESNWVQTLPGKHWFSYFRLYAPTEAYFDKRWKLDDITLVQ | failed
8 | MQPRLVIAGTHSGVGKTTVTLGLMAAFVEKGNIVQGFKCGPDYIDPSYHRAVTKRASRNLDSWMVSEDVVNDIFIEGCNGADLSIIEGVMGFYDGKASTSDKGSTADISLLLQAPVLLVVDISGMARSAAAVVKGFQQLNEKVKIAGVILNGAGSERHAEMCSEAIKEACGIPALGYLKKGDVPSIPERHLGLVPALERGEHDSLFSQLAAVVSRQFDLERIERLALEASALSRRTNLFQQTKRPSVVKIAVAYDAAFHFYYEENFTLLRQAGAELVYFSPLRGEDLPSHCDGLYLGGGFPEEFADELSQWIKDHPQLKKRVQSGLPTLAECGGYMFLGEQLTTTKGKTVEMAGVIPMVVQMENKLVSLGYRDVTPLDDSFLLSKGQQIRGHEFHYSKAVYTETERPAYFVKGLFGEGKEGYMSDHLLAGYTHLHFASEPAVATQWVKACEVYKNRRLHRGQVSQLEHHHHHH | not failed
9 | MQQHSSKTAYVYSDKLLQYRFHDQHPFNQMRLKLTTELLLNANLLSPEQIVQPRIATGDELMLIHKYDYVEAIKHASHGIISEDEAKKYGLNDEENGQFKHMHRHSATIVGGALTLADLIMSGKVLNGCHLGGGLHHAQPGRASGFCIYNDIAITAQYIAKEYNQRVLIIDTDAHHGDGTQWSFYADNHVTTYSIHETGKFLFPGSGHYTERGEDIGYGHTVNVPLEPYTEDASFLECFKLTVEPVVKSFKPDIILSVNGVDIHYRDPLTHLNCTLHSLYEIPYFVKYLADSYTNGKVIMFGGGGYNIWRVVPRAWSHVFLSLIDQPIQSGYLPLEWINKWKHYSSELLPKRWEDRLNDYTYVPRTKEISEKNKKLALHIASWYESTRQLEHHHHHH | failed
10 | MQQTVTYGAKWKQFLTIFTPIVITQLTLFSMTFFDTTMSGNYSNQALAGVAIGSSFWAPVNAAFSGLLMAITPIIAQLIGAKKEKQVKNTVHNGLYIALFLAFILILINFLVVPTILTHMPVTAEVAHIARHFLNGICIGIPAFFISAILRSFIDSLGLTRVTMLITLCTVPFNIFLNYCFIFGNFGFPEMGGAGSGYATGITYWLVVLVSVILIQTQTRLRKFGIFKGLTALRFSKVKEIIGIGVPNGLTILFETSIFSAVTILMGAFGTETIAAHQSANSVCTLLYAFPLSVASTLTILGGYETGAKRLKDAKQYRHIGMTAAILIGCINGAILFFFRDIIAGFYTNDAELSDLIMHFLVYAILFQFADAVLSPVLGALRGYKDVAITSIIAFISYWLIGLPVGYGLSFTNLGPFGYWIGLSTGLFVAAFILSIRVRKTERKLSLNAKNAEISS | not failed
11 | MQQVGFGTWNWVAVIVYLVLMLLVGAYFTKRASQNTDSFFTASGRLPSWAVGFSIYATTLSAITFMSTPEKAFLTDWSYIAGNIAIVAIIPLLIYFYVPFFKKLKVTSAYEYLEARFRPSVRVIGSLLFVLFHLGRVAIVIYLPTLAITAVSDLNPYVVASLVGILCILYTFLGGFEGVVWSDFIQGIILLGGAAAIIILGIIHIKGGMGTVVTDALDHKKLISADNWKFNTAAAAIPIIFLGNIFNNLHQYTASQDVVQRYQASESMSETKKSLWMNGVLALISAPLFYGMGTMLYSFYTHESALPEGFNTSSIVPYLILTEMPPFIAGLLIATIFAAAQSTISSSLNSISACLSVDIKHRIFGKGKEKDEVTFARWMIILSGLFGFGMSIYLIASDSNDLWDLFLLITGLVGVPLAGVFAVGIFTKRTNTLGVICGLALGIIFAYIFNGIGGGNSPFFVSIISFLVAFIFSYLIRIVIPDKKKDIVGLTIFDIKEKSNYVSKIHVKK | failed
12 | MQRFLSIALALCVGLTLSLDASAKRFGGGKSSGSAPIHQTRQATPTTPAAAPTVPGRAPAAASGASRWLGPLAGLAAGGLLASMFMGDGFEGFQIMDFLIVALIAFLVFRFIAARRRQQQPQMAMPGHAPMQREAHAQPAQPSIFGGSAAPAATAAPVINAPAWFNEQSFLAAARNHFQSLQQHWDANEMDKISEFVTPQMLEFLKRERAELGDGFQSTYIDNLEVQLDGVDDRADRTDATLTFRGVSKNSRFDQGEVFSESWHMVRAQGENQPWLVAGIRQNS | failed
13 | MQRISVIVPMYNEARHITRTLDSVLRAARAATLDCELIVVDNGSTDQGPQRARELGARVLLCPGIGIGALRNRGAAVATGDSLAFLDADIEVPGNWLQLWQQAHAEQRAEVFALDCAAPASAPWFARAWQRRSLAGDPQPRLLPWMPTPNLCLQRAWFERVGGFNEQLRTGEDKDFGLRLHAAGARQLSLPQPQVLHWGYEASWAEWAGKERWRQGSHVQLLKGSGLSLRLLRFPLLCLACALLSLVALLCLLAGLPGAAGLCLLLGALAPLALAVRQGLRQRDPLFVLQLWLLHWVRLHLGALALVQALFNRSAERPDRG | failed
14 | MQRLLLANDLPGVGKVALATSIPIAAACQVETMLLPTVLLSSHTGGFPDVVIEDMTDLNQAYFEQWKNLNLELAGILSGYCRNPQQLSQLAMYAKHTETPLIVDPIMGDSGRLYTGFTSSYVEAMKELTQSAQLILPNITEASLLTGRNYLGDSYDIHDIEDLLEALAEQVSADIVLTGISFDDSQIGVAYFQQETGEITTYMSKKYPANFFGTGDILSTLLAVATIQQINLHQAIPLALDFIDKSLERTLALDRDLKFGISFEPFLAELQQAFQILKEKL | failed

Reference: a protein production outcome set (Wang et al. 2014)
